Assay results: the supplement of paper PMC5998384

Experiments:
HeLa Kyoto [1] = assay: solubility change mitosis vs G1/S (difference of NP-40 vs SDS log2 ratios) (log2 ratio difference); higher = more soluble in mitosis
HeLa Kyoto [2] = assay: solubility in G1/S (NP-40 vs SDS abundance) (log2 ratio); higher = more soluble; details: cell cycle stage: G1/S
HeLa Kyoto [3] = assay: thermal stability score vs G1/S (z-score of summed log2 fold changes over temperatures); higher = more thermally stable than in G1/S
HeLa Kyoto [4] = assay: melting temperature (median over replicates), in situ; higher = more thermally stable
[5] = cell cycle stage: early G1 (4.5 h after nocodazole release)
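For melting temperature (median over replicates), in situ in this document: HeLa Kyoto cells synchronized by double thymidine or nocodazole block, proteins quantified by TMT10plex mass spectrometry, three independent biological replicates.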
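For solubility change mitosis vs G1/S (difference of NP-40 vs SDS log2 ratios) in this document: synchronized HeLa Kyoto cells (double thymidine block for G1/S, nocodazole release for mitosis), protein amounts in NP-40 versus SDS lysates quantified by mass spectrometry, three biological replicates.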
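For solubility in G1/S (NP-40 vs SDS abundance) in this document: HeLa Kyoto cells arrested at G1/S by double thymidine block, proteins quantified by TMT10plex mass spectrometry in mild NP-40 versus SDS extracts, three biological replicates.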
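For thermal stability score vs G1/S (z-score of summed log2 fold changes over temperatures) in this document: synchronized HeLa Kyoto cells, proteins quantified by TMT10plex mass spectrometry, three biological replicates, mitosis taken 0.5 h after nocodazole release, G1/S directly after double thymidine block.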

Sequence	solubility change mitosis (log2) (HeLa Kyoto [1])	solubility in G1/S (log2) (HeLa Kyoto [2])	thermal stability score (HeLa Kyoto [3]; [5])	thermal stability score (HeLa Kyoto [3]; cell cycle stage: mitosis)	melting temperature (HeLa Kyoto [4]; cell cycle stage: G1/S) [°C]	melting temperature (HeLa Kyoto [4]; cell cycle stage: mitosis) [°C]
MADDLGDEWWENQPTGAGSSPEASDGEGEGDTEVMQQETVPVPVPSEKTKQPKECFLIQPKERKENTTKTRKRRKKKITDVLAKSEPKPGLPEDLQKLMKDYYSSRRLVIELEELNLPDSCFLKANDLTHSLSSYLKEICPKWVKLRKNHSEKKSVLMLIICSSAVRALELIRSMTAFRGDGKVIKLFAKHIKVQAQVKLLEKRVVHLGVGTPGRIKELVKQGGLNLSPLKFLVFDWNWRDQKLRRMMDIPEIRKEVFELLEMGVLSLCKSESLKLGLF [CMSS1]	0.103	-0.211	1.03	0.589	49.9	50.3
MADDQGCIEEQGVEDSANEDSVDAKPDRSSFVPSLFSKKKKNVTMRSIKTTRDRVPTYQYNMNFEKLGKCIIINNKNFDKVTGMGVRNGTDKDAEALFKCFRSLGFDVIVYNDCSCAKMQDLLKKASEEDHTNAACFACILLSHGEENVIYGKDGVTPIKDLTAHFRGDRCKTLLEKPKLFFIQACRGTELDDGIQADSGPINDTDANPRYKIPVEADFLFAYSTVPGYYSWRSPGRGSWFVQALCSILEEHGKDLEIMQILTRVNDRVARHFESQSDDPHFHEKKQIPCVVSMLTKELYFSQ [CASP7]	0.00474	0.0897	-0.531	-2.43	53.9	54.2
MADEGKSYSEHDDERVNFPQRKKKGRGPFRWKYGEGNRRSGRGGSGIRSSRLEEDDGDVAMSDAQDGPRVRYNPYTTRPNRRGDTWHDRDRIHVTVRRDRAPPERGGAGTSQDGTSKNWFKITIPYGRKYDKAWLLSMIQSKCSVPFTPIEFHYENTRAQFFVEDASTASALKAVNYKILDRENRRISIIINSSAPPHTILNELKPEQVEQLKLIMSKRYDGSQQALDLKGLRSDPDLVAQNIDVVLNRRSCMAATLRIIEENIPELLSLNLSNNRLYRLDDMSSIVQKAPNLKILNLSGNELKSERELDKIKGLKLEELWLDGNSLCDTFRDQSTYISAIRERFPKLLRLDGHELPPPIAFDVEAPTTLPPCKGSYFGTENLKSLVLHFLQQYYAIYDSGDRQGLLDAYHDGACCSLSIPFIPQNPARSSLAEYFKDSRNVKKLKDPTLRFRLLKHTRLNVVAFLNELPKTQHDVNSFVVDISAQTSTLLCFSVNGVFKEVDGKSRDSLRAFTRTFIAVPASNSGLCIVNDELFVRNASSEEIQRAFAMPAPTPSSSPVPTLSPEQQEMLQAFSTQSGMNLEWSQKCLQDNNWDYTRSAQAFTHLKAKGEIPEVAFMK [NXF1]	0.533	-0.89	1.64	4.14	47.3	49.1
MADGELNVDSLITRLLEVRGCRPGKIVQMTEAEVRGLCIKSREIFLSQPILLELEAPLKICGDIHGQYTDLLRLFEYGGFPPEANYLFLGDYVDRGKQSLETICLLLAYKIKYPENFFLLRGNHECASINRIYGFYDECKRRFNIKLWKTFTDCFNCLPIAAIVDEKIFCCHGGLSPDLQSMEQIRRIMRPTDVPDTGLLCDLLWSDPDKDVQGWGENDRGVSFTFGADVVSKFLNRHDLDLICRAHQVVEDGYEFFAKRQLVTLFSAPNYCGEFDNAGGMMSVDETLMCSFQILKPSEKKAKYQYGGLNSGRPVTPPRTANPPKKR [PPP1CB]	0.0171	-0.161	0.423	0.737	52.3	52.1
MADGQMPFSCHYPSRLRRDPFRDSPLSSRLLDDGFGMDPFPDDLTASWPDWALPRLSSAWPGTLRSGMVPRGPTATARFGVPAEGRTPPPFPGEPWKVCVNVHSFKPEELMVKTKDGYVEVSGKHEEKQQEGGIVSKNFTKKIQLPAEVDPVTVFASLSPEGLLIIEAPQVPPYSTFGESSFNNELPQDSQEVTCT [HSPB8]	0.167	0.653	-0.244	0.347	52.3	52.1
MADGQVAELLLRRLEASDGGLDSAELAAELGMEHQAVVGAVKSLQALGEVIEAELRSTKHWELTAEGEEIAREGSHEARVFRSIPPEGLAQSELMRLPSGKVGFSKAMSNKWIRVDKSAADGPRVFRVVDSMEDEVQRRLQLVRGGQAEKLGEKERSELRKRKLLAEVTLKTYWVSKGSAFSTSISKQETELSPEMISSGSWRDRPFKPYNFLAHGVLPDSGHLHPLLKVRSQFRQIFLEMGFTEMPTDNFIESSFWNFDALFQPQQHPARDQHDTFFLRDPAEALQLPMDYVQRVKRTHSQGGYGSQGYKYNWKLDEARKNLLRTHTTSASARALYRLAQKKPFTPVKYFSIDRVFRNETLDATHLAEFHQIEGVVADHGLTLGHLMGVLREFFTKLGITQLRFKPAYNPYTEPSMEVFSYHQGLKKWVEVGNSGVFRPEMLLPMGLPENVSVIAWGLSLERPTMIKYGINNIRELVGHKVNLQMVYDSPLCRLDAEPRPPPTQEAA [FARSA]	-0.0944	0.0439	0.422	0.356	50.2	50.4
MADKEKKKKESILDLSKYIDKTIRVKFQGGREASGILKGFDPLLNLVLDGTIEYMRDPDDQYKLTEDTRQLGLVVCRGTSVVLICPQDGMEAIPNPFIQQQDA [LSM7]	0.227	0.0991	-1.51	-2.73	55.3	53.7
MADKVLKEKRKLFIRSMGEGTINGLLDELLQTRVLNKEEMEKVKRENATVMDKTRALIDSVIPKGAQACQICITYICEEDSYLAGTLGLSADQTSGNYLNMQDSQGVLSSFPAPQAVQDNPAMPTSSGSEGNVKLCSLEEAQRIWKQKSAEIYPIMDKSSRTRLALIICNEEFDSIPRRTGAEVDITGMTMLLQNLGYSVDVKKNLTASDMTTELEAFAHRPEHKTSDSTFLVFMSHGIREGICGKKHSEQVPDILQLNAIFNMLNTKNCPSLKDKPKVIIIQACRGDSPGVVWFKDSVGVSGNLSLPTTEEFEDDAIKKAHIEKDFIAFCSSTPDNVSWRHPTMGSVFIGRLIEHMQEYACSCDVEEIFRKVRFSFEQPDGRAQMPTTERVTLTRCFYLFPGH [CASP1]	-0.0916	0.0768	0.996	1.73	51.5	49.6
MADLAECNIKVMCRFRPLNESEVNRGDKYIAKFQGEDTVVIASKPYAFDRVFQSSTSQEQVYNDCAKKIVKDVLEGYNGTIFAYGQTSSGKTHTMEGKLHDPEGMGIIPRIVQDIFNYIYSMDENLEFHIKVSYFEIYLDKIRDLLDVSKTNLSVHEDKNRVPYVKGCTERFVCSPDEVMDTIDEGKSNRHVAVTNMNEHSSRSHSIFLINVKQENTQTEQKLSGKLYLVDLAGSEKVSKTGAEGAVLDEAKNINKSLSALGNVISALAEGSTYVPYRDSKMTRILQDSLGGNCRTTIVICCSPSSYNESETKSTLLFGQRAKTIKNTVCVNVELTAEQWKKKYEKEKEKNKILRNTIQWLENELNRWRNGETVPIDEQFDKEKANLEAFTVDKDITLTNDKPATAIGVIGNFTDAERRKCEEEIAKLYKQLDDKDEEINQQSQLVEKLKTQMLDQEELLASTRRDQDNMQAELNRLQAENDASKEEVKEVLQALEELAVNYDQKSQEVEDKTKEYELLSDELNQKSATLASIDAELQKLKEMTNHQKKRAAEMMASLLKDLAEIGIAVGNNDVKQPEGTGMIDEEFTVARLYISKMKSEVKTMVKRCKQLESTQTESNKKMEENEKELAACQLRISQHEAKIKSLTEYLQNVEQKKRQLEESVDALSEELVQLRAQEKVHEMEKEHLNKVQTANEVKQAVEQQIQSHRETHQKQISSLRDEVEAKAKLITDLQDQNQKMMLEQERLRVEHEKLKATDQEKSRKLHELTVMQDRREQARQDLKGLEETVAKELQTLHNLRKLFVQDLATRVKKSAEIDSDDTGGSAAQKQKISFLENNLEQLTKVHKQLVRDNADLRCELPKLEKRLRATAERVKALESALKEAKENASRDRKRYQQEVDRIKEAVRSKNMARRGHSAQIAKPIRPGQHPAASPTHPSAIRGGGAFVQNSQPVAVRGGGGKQV [KIF5B]	-0.0355	0.108	1.12	0.152	51.5	51.5
